Test results reported in patent US20210340264A1.

Molecular target: human SSTR2 (isoform A, UniProtKB P30874) (human) (UniProt P30874)
Assay: flow cytometry, BON-1 cells, same staining conditions (FIG. 10B)

human SSTR2, sequence (P30874 whole entry, canonical isoform): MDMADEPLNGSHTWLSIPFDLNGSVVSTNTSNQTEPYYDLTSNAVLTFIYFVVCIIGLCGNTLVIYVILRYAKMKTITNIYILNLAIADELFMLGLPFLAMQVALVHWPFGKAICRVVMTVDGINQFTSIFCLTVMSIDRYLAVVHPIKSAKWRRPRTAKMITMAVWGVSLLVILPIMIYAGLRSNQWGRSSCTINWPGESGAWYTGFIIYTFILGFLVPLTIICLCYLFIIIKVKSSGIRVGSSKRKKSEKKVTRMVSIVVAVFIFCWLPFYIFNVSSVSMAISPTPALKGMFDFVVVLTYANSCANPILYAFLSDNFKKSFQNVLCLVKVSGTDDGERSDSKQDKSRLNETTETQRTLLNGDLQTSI

commercial anti-SSTR2 mAb (R&D Systems, Catalog# MAB4224) (antibody)
surface binding percentage: 38%
